Tests used:
[1] = biological target: elongation factor thermo-unstable (EF-Tu), hexahistidine-tagged (E. coli) (UniProt P0CE47); assay: SEC
[2] = biological target: preformed oligomeric EF-Tu (^OligoEF-Tu) (E. coli) (UniProt P0CE47); assay: ITC

stoichiometry N [1] | Kd [2] [nM] | dH [2] [kcal/mol] | stoichiometry N [2] | Substance
1 | 580 | -18.8 | 2.37 | reduced form of Hsp33 (^RHsp33) (from UniProt P0A6Y5 1-292) (natural protein)
2 | – | – | – | elongation factor thermo-unstable (EF-Tu), hexahistidine-tagged (from UniProt P0CE47 1-394) (natural protein)
